Five substances from patent publication US20180074079A1 can be followed below.

In experiment [1] the target is rHDL bearing apoA-IW19:A136 (human) (UniProt P02647). As to the kind of experiment: FRET (Trp19 to AEDANS136) exchange assay, rHDL to lipid-free protein 1:5 molar, 37 C.
For experiment [2] the target is unchanged. As to the kind of experiment: FRET exchange assay, rHDL to lipid-free protein 1:5 molar, 37 C.
The target is the same in experiment [3]. The experiment in a line: FRET exchange assay, biphasic fit.
Experiment [4] has as its target HDL in human plasma (human). As to the kind of experiment: EPR, frozen and thawed plasma.
The target in experiment [5] is HDL in human plasma (human). The experiment in a line: EPR, increasing probe concentration in patient plasma.
Experiment [6] addresses HDL in human plasma (human). The experiment in a line: EPR, frozen and thawed plasma with higher TG concentration.
Experiment [7] concerns the target HDL in human plasma (human). As to the kind of experiment: EPR, center peak amplitude over time, 0.3 mg/ml probe in plasma of patient D1.
The target of experiment [8] is HDL in human plasma (human). The experiment in a line: EPR, center peak amplitude over time, 0.3 mg/ml probe in plasma of patient M1.
The target in experiment [9] is HDL in human plasma (human). The experiment in a line: EPR, center peak amplitude over time, 0.3 mg/ml probe in plasma of patient N1.
Experiment [10] deals with HDL in human plasma (human). The experiment in a line: EPR, frozen and thawed plasma with higher TG concentration, third freeze-thaw.
For experiment [11], the target named is 9.6 nm POPC rHDL generated with Alexa 350 labeled apoA-I (human) (UniProt P02647). The experiment in a line: displacement/exchange, rHDL apoA-I to lipid-free apoA-I 1:5 molar, 37 C, NDGGE fluorescence.
9.6 nm POPC rHDL generated with Alexa 350 labeled apoA-I (human), sequence (P02647 25-267): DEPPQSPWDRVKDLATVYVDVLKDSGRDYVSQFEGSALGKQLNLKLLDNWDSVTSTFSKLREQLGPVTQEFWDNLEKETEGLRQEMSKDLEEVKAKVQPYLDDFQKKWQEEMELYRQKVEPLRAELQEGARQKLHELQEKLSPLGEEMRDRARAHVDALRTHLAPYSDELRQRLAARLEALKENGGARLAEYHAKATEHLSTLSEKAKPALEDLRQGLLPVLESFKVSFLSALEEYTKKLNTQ

rHDL bearing apoA-IW19:A136 (human), sequence (P02647 other isoform, or with tags, fused parts or gaps): as the sequence (P02647 25-267) above, with W8F, V19W, W50F, W72F, W108F, E136C counted along it

In turn, “Trp Null apoA-I (four endogenous tryptophans substituted for phenylalanine) (from UniProt P02647 25-267)” came in with an exponential relaxation time (time to 50% maximal exchange, τ) in experiment [1] of 0.94 h.

Consider “Trp Null apoA-I oxidized by peroxynitrite (from UniProt P02647 25-267)”, for which the exponential relaxation time of exchange (t) in [2] is 0.67 h.

In [3], “Trp Null apoA-I oxidized by the MPO-H2O2-nitrite system (from UniProt P02647 25-267)” had an exchange impaired population of 57.3% and an unaffected population of 42.7%. In experiment [2], this substance displayed an exponential relaxation time of exchange (t1) of 0.92 h and an exponential relaxation time of exchange (t2) of 18.8 h.

As for “apoA-ISL217 (apoA-I bearing a G217C mutation, cysteine derivatized with a thiosulfonate linked nitroxide spin label) (from UniProt P02647 25-267)”, in [4], the reduction of rate and degree of binding after a freeze-thaw cycle is 10%; the reduction of rate and degree of binding after the third freeze-thaw is 20%. The saturating concentration in [5] was found to be 1.9 mg/mL. In addition, the decrease in EPR observable binding after freeze-thaw, plasma with higher TG in experiment [6] was determined as 15%. This substance had a time to maximal binding (patient D1) in experiment [7] of 10 min. The same substance returned a time to maximal binding (patient M1) in [8] of 8 min. Besides, the time to binding (patient N1) in [9] was less than 5 min. This substance also yielded a decrease in EPR observable binding after freeze-thaw, plasma with higher TG in experiment [10] of 25%.

As to “unlabeled lipid-free apoA-I (from UniProt P02647 25-267)”, the release of Alexa350 labeled apoA-I from rHDL into the lipid-free pool in experiment [11] was more than 90%.
